Test results from paper PMC7720844.
Blank lines part the entries; values can stand above or below the substance they belong to.

Assays:
WTAP = WTAP (UniProt Q15007); test: co-IP, immunoblot; settings: reference: wild type; sites S43,S50,S525
USP5 = USP5 (UniProt P45974); test: anti-myc co-IP, immunoblot; settings: reference: wild type

- binding against the reference (WTAP): weaker
Substance: METTL3 (from UniProt Q86U44) 3A (S43A/S50A/S525A)

- binding against the reference (USP5; sites S43): weaker
Substance: METTL3 (from UniProt Q86U44) S43A

- binding against the reference (USP5; sites S50): weaker
Substance: METTL3 (from UniProt Q86U44) S50A

- binding against the reference (USP5; sites S525): weaker
Substance: METTL3 (from UniProt Q86U44) S525A
